Results from paper PMC8998743, “Dimerization Activity of a Disordered N-Terminal Domain from Drosophila CLAMP Protein” (International Journal of Molecular Sciences, 2022).

B1: thioredoxin-tagged CLAMP^1–127 (domain or fragment, D. melanogaster, UniProt Q9V9N4 1-127, looked up)
chain: MEDLTKNIIFTNAINGQPATIQYQTADGTILKQPKIEGQKTEQQPTFYYTTNGNGGTVNLAQLATTDDNKTCYIAQPVGGYNYALVNGMPLNQGAALGIATVDAQGRIQIVNQNKPIAANTISNISF
notes: Used in glutaraldehyde cross-linking with the thioredoxin tag on; source: E. coli BL21(DE3), purified
B2: CLAMP^1–127 (purified, tag cleaved) (domain or fragment, D. melanogaster, UniProt Q9V9N4 1-127, looked up)
chain: B1 chain
notes: source: E. coli BL21(DE3), purified (Ni-NTA, TEV cleavage, SOURCE15Q)
B3: CLAMP^1–113 (purified, tag cleaved) (domain or fragment, D. melanogaster, UniProt Q9V9N4 1-113, looked up)
chain: MEDLTKNIIFTNAINGQPATIQYQTADGTILKQPKIEGQKTEQQPTFYYTTNGNGGTVNLAQLATTDDNKTCYIAQPVGGYNYALVNGMPLNQGAALGIATVDAQGRIQIVNQ
notes: as for B2
B4: CLAMP^1–153 (purified, tag cleaved) (domain or fragment, D. melanogaster, UniProt Q9V9N4 1-153, looked up)
chain: MEDLTKNIIFTNAINGQPATIQYQTADGTILKQPKIEGQKTEQQPTFYYTTNGNGGTVNLAQLATTDDNKTCYIAQPVGGYNYALVNGMPLNQGAALGIATVDAQGRIQIVNQNKPIAANTISNISFKCDVCSDMFPHLALLNAHKRMHTDGE
notes: as for B2

Key:
[1] = target: the molecule itself; assay: cross-linking; thioredoxin-tagged proteins at 5 μM, increasing concentrations of glutaraldehyde, 10 min at room temperature, 20 mM HEPES pH 7.7, 150 mM NaCl, 20 mM imidazole, 1 mM β-mercaptoethanol; SDS-PAGE, silver staining
[2] = target: the molecule itself; assay: SEC; Superdex S200 size-exclusion chromatography of purified CLAMP derivatives
[3] = target: the molecule itself; assay: SAXS; in solution, BM29 BioSAXS beamline (ESRF); molecular weight from extrapolated I0; CLAMP 1-153 at 2.3 mg/mL, CLAMP 1-113 at 1.0 and 7.0 mg/mL, CLAMP 87-153 at 2.5 and 10.0 mg/mL

Row | Protein | stoichiometry N [3] | other results
1 | B1 |  | binding result [1]: binds
2 | B2 |  | binding result [2]: binds
3 | B3 | 2 | 
4 | B4 | 2 | 
